Substrate: O=C1C=CCCC1
Assay: purified protein
Format: biochemical, Bacillus subtilis
Conditions: 0.15 mM NADPH, 40 mM HEPES pH 7.5, 35 °C, anaerobic (glucose oxidase/glucose), 15 nM enzyme

B1: enoate reductase YqjM (Bs-YqjM) (Bacillus subtilis subsp. subtilis str. 168) (protein)
chain: MARKLFTPITIKDMTLKNRIVMSPMCMYSSHEKDGKLTPFHMAHYISRAIGQVGLIIVEASAVNPQGRITDQDLGIWSDEHIEGFAKLTEQVKEQGSKIGIQLAHAGRKAELEGDIFAPSAIAFDEQSATPVEMSAEKVKETVQEFKQAAARAKEAGFDVIEIHAAHGYLIHEFLSPLSNHRTDEYGGSPENRYRFLREIIDEVKQVWDGPLFVRVSASDYTDKGLDIADHIGFAKWMKEQGVDLIDCSSGALVHADINVFPGYQVSFAEKIREQADMATGAVGMITDGSMAEEILQNGRADLIFIGRELLRDPFFARTAAKQLNTEIPAPVQYERGW
notes: full gene, N-terminal 6xHis tag (p15TvL), tag cleavage not mentioned; expressed in E. coli LOBSTR BL21(DE3); FMN loaded
- Km: 350 ± 60 µM

From article PMC8461876, “Automation assisted anaerobic phenotyping for metabolic engineering” (Microbial Cell Factories, 2021)
